Reference: PMC2847487
Blank lines part the entries; values can stand above or below the molecule they belong to.

Key:
[1] = biological target: C-terminal myc-tagged sortilin (UniProt Q99523); assay: co-IP
[2] = biological target: triple-site mutant proNGF (mouse, cleavage-resistant) (mouse); assay: crystal structure
[3] = biological target: sortilin extracellular region with C-terminal biotinylation acceptor peptide, biotinylated (human) (human) (UniProt Q99523); assay: SPR
[4] = size exclusion chromatography of p75NTR alone; settings: glycan lost; control: wild-type glycosylated p75NTR

Molecule: proNGF/p75NTR complex (preformed) (from UniProt P07174 29-190)
Kd [3]: 140 nM

B1: p75NTR: Asn32 to Asp (protein)
parent chain: MRRAGAACSAMDRLRLLLLLILGVSSGGAKETCSTGLYTHSGECCKACNLGEGVAQPCGANQTVCEPCLDNVTFSDVVSATEPCKPCTECLGLQSMSAPCVEADDAVCRCAYGYYQDEETGHCEACSVCEVGSGLVFSCQDKQNTVCEECPEGTYSDEANHVDPCLPCTVCEDTERQLRECTPWADAECEEIPGRWIPRSTPPEGSDSTAPSTQEPEVPPEQDLVPSTVADMVTTVMGSSQPVVTRGTTDNLIPVYCSILAAVVVGLVAYIAFKRWNSCKQNKQGANSRPVNQTPPPEGEKLHSDSGISVDSQSLHDQQTHTQTASGQALKGDGNLYSSLPLTKREEVEKLLNGDTWRHLAGELGYQPEHIDSFTHEACPVRALLASWGAQDSATLDALLAALRRIQRADIVESLCSESTATSPV
oligomerisation [4]: no change

More lines, now with the values ahead:

fold increase of the proNGF:sortilin interaction with calcium over EDTA [1]: 2.3 fold
Molecule: N-terminal HA tagged-proNGF (from UniProt P01139 122-241) (ligand)

stoichiometry N (p75NTR per proNGF chain (2:2)) [2]: 1
Molecule: p75NTR extracellular portion, Asn32 to Asp glycosylation site mutant (rat) (from UniProt P07174 29-190) (receptor)
